Holding throughout (conditions): both partners purified
For experiment [1], the target named is T1, KaiC (wild-type) (UniProt Q79PF4 1-519).
T1 construct: KaiC, circadian clock protein of cyanobacteria; hexameric ring; In reactions with KaiA the phosphorylation of S431 and T432 cycles over about 24 h; also called WT KaiC; wild-type KaiC; source: recombinantly expressed and purified as previously described
T1 sequence (looked up): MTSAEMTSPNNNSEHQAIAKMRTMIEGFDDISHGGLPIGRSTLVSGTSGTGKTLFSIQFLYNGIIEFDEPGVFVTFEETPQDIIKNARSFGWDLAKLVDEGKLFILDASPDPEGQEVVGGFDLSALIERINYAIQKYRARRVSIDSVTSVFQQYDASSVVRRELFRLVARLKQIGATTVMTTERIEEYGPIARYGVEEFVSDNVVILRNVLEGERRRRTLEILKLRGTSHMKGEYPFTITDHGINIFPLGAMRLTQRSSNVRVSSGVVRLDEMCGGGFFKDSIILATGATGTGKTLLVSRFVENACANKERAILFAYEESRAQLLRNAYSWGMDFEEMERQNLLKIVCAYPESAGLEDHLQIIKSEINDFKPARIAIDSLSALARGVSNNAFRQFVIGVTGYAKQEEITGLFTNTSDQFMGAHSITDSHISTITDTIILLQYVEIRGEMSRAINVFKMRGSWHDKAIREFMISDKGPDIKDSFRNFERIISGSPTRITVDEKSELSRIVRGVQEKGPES
The experiment in a line: fluorescence polarisation; standard oscillator reaction: 1.5 μM KaiA, 3.5 μM KaiC, 3.5 μM KaiB at different ratios of KaiB and b-KaiB, 0.2 μM FITC-labeled KaiB K25C; time course over 144 hrs.

The target of experiment [2] is T2, pS KaiC (KaiC-EA; S431E, T432A) (UniProt Q79PF4 1-519, S431E | T432A).
T2 construct: KaiC, circadian clock protein of cyanobacteria, phosphomimetic of the pS431 (night) state; also called pS KaiC mutant; source: recombinantly expressed and purified as previously described
T2 sequence (looked up): T1 sequence (looked up) with S431E, T432A
The experiment can be described thus: fluorescence polarisation; colloid-linking conditions: 5.5 μM KaiB (55% b-KaiB), 6.5 μM KaiC (wild-type, pT or pS), 2.2 μM KaiA, 0.4 μM FITC-labeled KaiB K25C; time course. On the technique in general: Polarisation of emitted light reports the rotation of a fluorescent probe.

Experiment [3] addresses T2, pS KaiC (KaiC-EA; S431E, T432A). The experiment can be described thus: pull-down; 6.5 μM KaiC (wild-type, pT or pS) and 5.5 μM KaiB (55% b-KaiB, 45% unlabeled KaiB) in Kai buffer (10% glycerol, 150 mM NaCl, 20 mM Tris-HCl pH 8.0, 5 mM MgCl2, 0.5 mM EDTA, 1 mM ATP); 8 hr at 30°C; b-KaiB and partners removed with streptavidin-coated magnetic beads; supernatant analysed by SDS-PAGE.

In experiment [4] the target is T1, KaiC (wild-type). The experiment is described as above.

Residue numbers refer to the chain shown, from its start. In names and notes the source's numbering stands.

B1: FITC-labeled KaiB K25C (natural protein, UniProt Q79PF5 1-102, looked up)
chain: MSPRKTYILKLYVAGNTPNSVRALCTLKNILEVEFQGVYALKVIDVLKNPQLAEEDKILATPTLAKVLPLPVRRIIGDLSDREKVLIGLDLLYGELQDSDDF
modifications: FITC label
notes: KaiB, circadian clock protein of cyanobacteria, with K25C; also called fluorescently labeled KaiB
On to B1, for which the binding result (with KaiC (wild-type) [1]; in experiment [2]) was “binds” throughout.

B2: biotinylated KaiB (natural protein, UniProt Q79PF5 1-102, looked up)
chain: B1 chain with C25K
modifications: biotin, amine-reactive (potential sites: lysine residues); EZ-Link-Sulfo-NHS-LC-Biotin at a 50x molar excess to KaiB
notes: KaiB, circadian clock protein of cyanobacteria; In the assays b-KaiB was mixed with unlabeled KaiB (55% b-KaiB, 45% KaiB); also called b-KaiB; source: recombinantly expressed and purified as previously described; biotinylated with EZ-Link-Sulfo-NHS-LC-Biotin
Consider B2, for which the binding result (in experiment [3]; with KaiC (wild-type) [4]) was “binds” throughout.

For the origin of these results see paper PMC10002811, “Timed material self-assembly controlled by circadian clock proteins” (ArXiv, 2024).
